From the domain aggregation screens of Martell et al. (2025) come the findings set out here.

The data set can be described thus: soluble fraction after stress (log2 fold change); higher = more stays soluble; pooled small domains, quantitative proteomics. The note with it: stress: 50 degC. The gist of the method: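 Each library was heated to 50°C as a stress step. The libraries, made up of small protein domains, were pooled and analysed at high throughput by quantitative proteomics. The reported value is the base-two logarithm of the fold change in each protein's soluble amount after stress, taken as a measure of aggregation propensity. The higher the value, the more protein stays in solution.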

Turning to “HMNPAIYIRKNILNLTQEKLSEYLDVTQPTIHRWEESGVIPAKHQRQIREFASEKGIYWNDSWFFSIPDE”, the “soluble fraction (log2)” value is -0.953.

Regarding “HMVTYELTEDEKFIVSLLEKENSQPIGALKDKSALSGKKWDAAMKGLAKHGLTKVVVDGDNKLVVL”, the “soluble fraction (log2)” value was -0.00965.

With “HMDYYASVDQVWRELGLAGPARRALIDDGLFKLSDLRKTSLAAVKELHGMGPNAIRILTTEMKKADLSFR”, the “soluble fraction (log2)” value is -2.25.

Consider “HMGQVLEGVFRRKANGKNAFIPDGGGEPILVAERNSAHAMDGDRVKATLLARRKHHVREAQVTEILKRSSK”, for which the “soluble fraction (log2)” value was -0.0521.

Regarding “HMKEATTSPLDGIPGIGSKRKKALLSHFGSARSVARADIPDLMRVDGISRQVAETIYGWFHN”, the “soluble fraction (log2)” value is -0.179.

Take “HMKTRQVTVRNGRIEIFDKRFSTERLVFTAANLPVLEREGEVFTAGIPDSRDFINLWARDGSFAGSVPRV”: the “soluble fraction (log2)” value is -1.06.

On to “HMNLNLDITTYKLEELENLLKLKPNYKQEQIFEAKTKMEKFILKSNLNESKREELYIFLDNIYNKLTNNLL”, for which the “soluble fraction (log2)” value is -2.17.

Turning to “HMSQAVEISSVKTQIDGKSYYLHTIKQGQTLYGISKAYGVSVEELTTVNPETSKGLKVGQIIKVPDTKT”, the “soluble fraction (log2)” value was found to be 0.0299.

For “HMNTIIIDILPKGLSIAGNQTEPKSLIQQLLMARRADPAQPILLRPAIAVPVQNVVELIDRLTAAGI”, the “soluble fraction (log2)” value was -0.221.

“HMAFEITSAERTRLEDIARKGLTAYTAEWKQLPASEKKALNKTGLQDFLKSMAADADSAREEEA”: the “soluble fraction (log2)” value was 0.0772.

On to “HMGMSENIDKVAGGIPYKVEGNKAIINEPLDDATKERLMGKAKEHGYHAAPNQAGGITITLK”, for which the “soluble fraction (log2)” value came to 0.134.

With “HMLSADLLDKIQRIDSLEQQGKYAQAEKEARALLSDPSITPSERASVQNILSSIARKKAAQAQ”, the “soluble fraction (log2)” value was 0.11.

As to “HMARGATELPYSQLLDRVEAGEITTATTQGNTLLSTARDGKRYITYLPLDTMDEVVPRLDAANVEVKTER”, the “soluble fraction (log2)” value was 0.0506.

As to “HMRQYKEMPYRLFLIHLGKGLVDEVELSDKAKLTGKLKNGKIFITDNPRTENFKEQLLLHDVKVKEG”, the “soluble fraction (log2)” value stood at 0.12.

For the sequence “HMKSVTAPLPGTVTQILVKVGDAVKAGDTVLMLEAMKMENSITAEAAGTVKAIRVEKGAQVQGGDVLIEM”, the “soluble fraction (log2)” value came to 0.156.

For the sequence “HMGDKVTIPNLIDMKLTDAQNQYKPQGFSIVKNGERESDKEAGTILEQDKAAGTEISGKDIRIFVVVSSGS”, the “soluble fraction (log2)” value was -0.00368.

For the sequence “HMVQQAVNMAKPGKLFTGPSPTSKALRDLDAGAMLYPTGEKQGPFWKVQDELGNEGWVAMGLLQLA”, the “soluble fraction (log2)” value was 0.175.

Regarding “HMLEIQENFQNILKRMELSLSPLERRVLALYLSGYERSEIPEKTGIPLKTFDNALHRVRNKMK”, the “soluble fraction (log2)” value is -1.53.

Turning to “HMLEQSYYEKTDEIIELHGAKASSLIPVMQDVQAEYRYLPGELLSYIADKLGIPLAKAYSVATFYENFS”, the “soluble fraction (log2)” value is -0.358.

For “HMGQHSAELKLHPQDLGQVTISMKVEDNQAQLQMVSGHGHVRAALEAALPQLRSQLADSGIQLTQSSIS”, the “soluble fraction (log2)” value was -0.146.

As for “HMKEEDYEVFMRLINVRGIGPKSALNILGVISGQEMIQAIENDDIKRLKSLPGIGAKTAGQIVLDLKGKFV”, the “soluble fraction (log2)” value is -0.649.

In the case of “HMGPEQLIGKTGIAASELAPRGEVKIEGQIWRAETVGDHVKQGEPVEVVSREGLILRVKPKHPQTRG”, the “soluble fraction (log2)” value was 0.214.

Turning to “HMALQLPFSFAKRHKVLVESAHEPVKVYHTPSTDFAVFAEVRRFLDQTFVLEEIAENRFEELLTSSFQRD”, the “soluble fraction (log2)” value is -1.27.

As for “HMKQQTRAELLDEFAKAHAERGLYFNRDYEQGEIQALQPDKAREYLQSALEARTERQQASEQDR”, the “soluble fraction (log2)” value was 0.274.

For “HMQNEVMPYSTFLSEVNSGNVTKVKIDHEQLTGTLKSGKQFTTYILDAATLPSIVAEKGVEVEVVPP”, the “soluble fraction (log2)” value turned out to be 0.357.

As for “HMGRTITVGIAEDADIKDIAKMLEEKGLISDYRLFVVQELLSAQHDKIKPGIYDLSTDMKAEEMLEILAG”, the “soluble fraction (log2)” value was -0.541.

For “HMQYRQRRGLERMELILDAATRVVAEVGYERTTTNAIATRAGISPGSLYQYFSSKEDIASALWERYAE”, the “soluble fraction (log2)” value was -0.23.

For “HMGAWQQTGFFRNRENAESLAEVLRQRGFSPVVREDTRPSGTVYYAVLVPDDGTTAARLKDAGIDSYPV”, the “soluble fraction (log2)” value worked out at 0.0695.

As for “HMWQPIKLDRGDWQNSLQVGDRVFVRGIPRPVEILSAVDEENNIEVLMGTMRAKIPVYQLDKPAENFIDTT”, the “soluble fraction (log2)” value is -0.15.

For the sequence “HMRYTAAEMAKKLDISRSYLYYLKEAGVVEIEKNENGKPIWTESVYNQLFEYIKKNHRTEEADNTQ”, the “soluble fraction (log2)” value is -0.578.

Take “HMTVSIDSLFDKFEDLQEQGLGDKTEEGQELRGLIRAFIEQEHLSVRITRSTSNQELLDMIEEAMQ”: the “soluble fraction (log2)” value was -1.45.

“HMQQELEEMESGNLVRTAIDSLPINQRTAFILSAYEELPIKEIASIMNRSEGAVEQLLQRAKMNLKKKIK”: the “soluble fraction (log2)” value is 0.347.

On to “HMQISDTSELEAVVQDILKANMDVVAKIKAGKTNSANFLMGQVMKLTKGRAKPDTVLQLILDAVKQ”, for which the “soluble fraction (log2)” value was -0.301.

Consider “HMERFMEFVITDTQQGQRLDVVLTETTEHLGSRSHMQRSIRAGLVSIDGITTTRASTKVSSGQIIRVEPT”, for which the “soluble fraction (log2)” value was -1.49.

As to “HMISDAEWKIMNVLWEEQPRTMMQITKELQEETGWTKHTVMTYLKRMESKKIIHYVEGEKAKLYYS”, the “soluble fraction (log2)” value was -0.0967.

Turning to “HMDRELVALVQKALSQLSEQQRRIVELHVMEGMKYLEIADLLQLSENTVRTHLKRAYKILRENH”, the “soluble fraction (log2)” value was -1.76.

Regarding “HMVEVVDAEKLEERLSKVFSAAVLLEIYNENPAHGKEYAYLFTARKNAVEEMIENGQMKRETWEAK”, the “soluble fraction (log2)” value was -0.963.

Take “HMALKRVAPQGEDKLSAQLDGVEFDKLIPWLGMLEHDHRIAIVNLSIDRANATGLVNARVIL”: the “soluble fraction (log2)” value was -0.0239.

With “HMEDIAAIAQRIQGLRDIVGISVEEMAKALDISEQEYREYEKGETDFSFSFLYTVANVLGINITDLI”, the “soluble fraction (log2)” value was -0.709.

For “HMQFSAVVLDMETRRQVAGVAVYINPKGVVKTDMRGRFVIDGAFNSVTLVRQGYESLTLERSEMTDSIWM”, the “soluble fraction (log2)” value was -1.65.

For “HMDFNNQLKRIRESNGLTQEQLAKILNVSRQSISSWEVGRNFPDLEMIVIISKEFNISLDQLIMG”, the “soluble fraction (log2)” value is -2.82.

As to “HMVKLDDLTGQDKASAEAAISNLGLKYSEQQEYSDEIEEGKVTRTDPGAGSTSLKAGDTVTVYISRGPE”, the “soluble fraction (log2)” value worked out at 0.21.

Turning to “HMGEVPVETKDGIKVHVHTVDKSQTAYGISRLYNITLNELYESNPEAKLELSIGQKLYFPVK”, the “soluble fraction (log2)” value was -0.154.

Regarding “HMHIELNDTQKRILNFLSDDPNLSAVRLAEQLGISSRNVEKNIKKLKEYGILIRHGSPKNGYWEIVV”, the “soluble fraction (log2)” value is 0.0335.

For “HMPKMISPAQIKAIGAKTNNIAKASGVEQAQVYQSAVAHLGINNKSTKELTSQEASKVIEYLSTL”, the “soluble fraction (log2)” value came to 0.0861.

As to “HMQDTIDLVIQVNGKLRGQMNVPKDTDRATIEQLAINLENVQKIVAGNAIKKIIIVPGRLINIVVSKNL”, the “soluble fraction (log2)” value was -0.925.

“HMLELDRTNLLGVFGSKSNPYALIMLSNGEMLKLSIGDQFLGWRVYAIDQTTVHVQNGKNQEILRIP”: the “soluble fraction (log2)” value was -1.13.

For the sequence “HMGNNTEITYSEFIRQAEAGNVQYVTVDGEKLLISATDGKSYYTINPRDDQMTDRLLNSGVEIRAEPQ”, the “soluble fraction (log2)” value was 0.101.

In the case of “HMIAAVIAQVANTNERIILEKRYLSFKSWDEIAVEMRISPRWAYTLHERALKAVDQVLSKQNNE”, the “soluble fraction (log2)” value is -4.07.

In the case of “HMSKSIGEALKEERRSLGLTQEQFIKGIISESFYSKVERGKNEIVAVDLLKILAANNISEEEFLSKLN”, the “soluble fraction (log2)” value is -0.58.

Take “HMLINLGPRIRKERRSKGISQSDFSKNLGISASYLNLLENGRRTLTVPLLIKIGNELNLSLKDL”: the “soluble fraction (log2)” value was -0.0339.

For the sequence “HMDDFSETLLQYIKEKGGHISLNDKTDAGVIYETFGVSKKTFKKAVGDLYKKRLIVLEDTGIRL”, the “soluble fraction (log2)” value was -0.0801.

“HMEKVDAISQSILDVLKKNNGYLAVTDKSDPDEIYGLFQISKKTFKKAIGSLYRDRLISIEEEGIRLR”: the “soluble fraction (log2)” value came out at 0.116.

Consider “HMSAVNLNDDEKAVYKSIKSGIRSLDELSLRTGMKIYELMAITVSLEMKGLVTKSPDGTLDAT”, for which the “soluble fraction (log2)” value is 0.147.

For the sequence “HMWSGEPFLDELRHADTLLETDPEAALAEYRALADKGSAAAMMALGNAYASGSHVARDEGEAEHWYRRAA”, the “soluble fraction (log2)” value is 0.0547.

With “HMTKSEWLRESREHLGLSQTDLRNLLNTALNRSYDKSRISRWENSKENIPAEVVKQIESLIATR”, the “soluble fraction (log2)” value was found to be 0.123.

In the case of “HMELKFIGEAVNNPKRPLIAILGGAKVSDKIGVIENLLTKADKILIGGAMMFTFLKAEGKNIGTSLVED”, the “soluble fraction (log2)” value worked out at 0.0616.

Regarding “HMDIRLMPGTVLTREYQGIEHRVTVAQDGQYEFEGRRYPSLSMIAREITGTRWSGPLFFGVK”, the “soluble fraction (log2)” value was -0.657.

As to “HMLNTLGADIRALRKARGLTLAELAQTLGRSVGWLSQVERDMSEPGINDLRDLARALDVSISSLFG”, the “soluble fraction (log2)” value is -1.13.

Consider “HMDDHLSFLAARLPDGASFDTDFDALGIDSFGMIALRAEVEERLGEQIADSDWTKVERPSEILAMLERK”, for which the “soluble fraction (log2)” value is -0.272.

With “HMKNNNIIFSEFLKEVENGRVVEVRIQGNNIQGIMSNGKEFTTYSPNYPNLIEKLTETGVSISAAPL”, the “soluble fraction (log2)” value came out at 0.0449.

For “HMNTFDLSKLEEIILASRDKAMKTKEFTELDNLKNLFITAGLDVQMSKNGIKLIKGPKFNSSLLEDF”, the “soluble fraction (log2)” value is -0.655.

“HMNHGDATTETQAEIMAILSDMKPHPITELNTIKRPYEQIDTALTYLINEEKIYRMDGMIFIG”: the “soluble fraction (log2)” value was -0.694.

“HMKMSVEEVNLSPRTTNALINNDIKTMKDLVALTDTELRDLKGFGSKAYEEVKEKLSELGLSTQ”: the “soluble fraction (log2)” value was 0.227.

As to “HMRLSVVDLQDSLRGLEYPAGKGDLINHAREHNASADVIAVLEQFSERTYRSAADVGEEFGRV”, the “soluble fraction (log2)” value came out at 0.111.

Regarding “HMTLYITDQMRKILDYVATNQEIDEKAVMDLLSIQRTRAYLIAKKMTDIGLLQVQGRGKTKTYRLAARS”, the “soluble fraction (log2)” value is -1.93.

Turning to “HMASALDFGRYVRSQYSLQEFPLILIAPLNDPHPKEVVRELFNLYLTKPITRSRLFDSLMTVLG”, the “soluble fraction (log2)” value is -0.753.

“HMSQQMSYSDFVKAVSARQIREAQIQGDKIYATDSTGNRLTIIRLDNDQRLVDDMINNDVNIIGLEE”: the “soluble fraction (log2)” value stood at 0.156.

Consider “HMKEVVVPDYFLKQLQKNKKAFITFNNFSPSHKREYVEWITEAKTEETKNRRMKSAIEWMSEGKSRNWKYI”, for which the “soluble fraction (log2)” value is 0.0292.
